{"source": "paper PMC6097844", "binders": {"B1": {"name": "RNA/DNA hybrid 6-mer (DNA:RNA)", "RNA": "ACAUCG", "DNA": "CGATGT", "modifications": "strand 1 printed ArCrArUrCG: ribonucleotides at 2-5, deoxy A1 and G6; strand 2 all DNA"}}, "molecular_target": "Bh-RNase HC (RNase H1 catalytic domain) (Bacillus halodurans, UniProt Q9KEI9 59-196)", "sequence (Q9KEI9 59-196)": "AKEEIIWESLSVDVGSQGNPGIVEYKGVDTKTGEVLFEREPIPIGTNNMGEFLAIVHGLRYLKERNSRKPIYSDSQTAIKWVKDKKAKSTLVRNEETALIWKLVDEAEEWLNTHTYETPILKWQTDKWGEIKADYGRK", "experiment": "X-ray crystallography"}
{"binder": "B1", "values": [{"measurement": "binding result", "value": "binds"}]}
